Source: patent US6887471

B1: CD7 expressed on transfected COS cells (receptor, UniProt P09564 26-240, looked up)
chain: AQEVQQSPHCTTVPVGASVNITCSTSGGLRGIYLRQLGPQPQDIIYYEDGVVPTTDRRFRGRIDFSGSQDNLTITMHRLQLSDTGTYTCQAITEVNVYGSGTLVLVTEEQSQGWHRCSDAPPRASALPAPPTGSALPDPQTASALPDPPAASALPAALAVISFLLGLGLGVACVLARTQIKKLCSWRDKNSAACVVYEDMSHSRCNTLSSPNQYQ
notes: whole, on cells; Control transfectant; also called CD7-transfected COS cells

Tests used:
[1] = target: B7 Ig fusion protein (human) [IgG part: P01857]; assay: solid phase competition: 125I-B7 Ig binding to immobilized CTLA4 Ig
[2] = target: B7 antigen (B7/BB-1, B7-1) on the cell surface (human) (UniProt P33681); assay: cell-based or functional assay
[3] = target: T1, B7 Ig fusion protein (human, UniProt P01857-1 99-330 = IgG part, limits assumed, 125I label in the solid phase binding assays); assay: FACS, indirect immunostaining of transfected COS cells
T1 construct: domain: hinge, CH2 and CH3 regions; Made as in Linsley et al. 1991; also called B7IgCγ1

Row | Molecule | IC50 [1] | inhibition of Th-induced IgM production [2] | binding result [3]
1 | murine monoclonal antibody BB-1 (anti-B7 antigen) | 22 nM | 65% | –
2 | B1 | – | – | no binding (tested: 10 µg/ml)
